Reference: patent US20230406942A1 (HORIZON THERAPEUTICS IRELAND DAC, published 2023)
Where a chain is given by its changes, count along the chain named.

B1: Teprotumumab reference antibody (antibody, V domains shown)
VH: QVELVESGGGVVQPGRSQRLSCAASGFTFSSYGMHWVRQAPGKGLEWVAIIWFDGSSTYYADSVRGRFTISRDNSKNTLYLQMNSLRAEDTAVYFCARELGRRYFDLWGRGTLVSVSS
VL: EIVLTQSPATLSLSPGERATLSCRASQSVSSYLAWYQQKPGQAPRLLIYDASKRATGIPARFSGSGSGTDFTLTISSLEPEDFAVYYCQQRSKWPPWTFGQGTKVESK
B2: D03-YTE (antibody, V domains shown)
VH: B1 VH with Y32H, I50Y
VL: B1 VL with Y32A, W94Y
B3: C10 antibody (antibody, V domains shown)
VH: B1 VH with Y32A, F53A
VL: B1 VL with W94Y
B4: B10 antibody (antibody, V domains shown)
VH: B1 VH with I50T
VL: B1 VL with W94Y
notes: Whole antibody
B5: A11 antibody (antibody, V domains shown)
VH: B1 VH with I50Y
VL: B1 VL with W94Y
notes: Whole antibody
B6: B02 antibody (antibody, V domains shown)
VH: B1 VH with Y32T, I50Y, G101N
VL: B1 VL with W94Y
notes: Whole antibody
B7: D03 antibody (antibody, V domains shown)
VH: B1 VH with Y32H, I50Y
VL: B1 VL with Y32A, W94Y
notes: Whole antibody; also called clone D03
B8: B09 antibody (antibody, V domains shown)
VH: B1 VH with Y32H, W52A, F53G, G55A, S57T
VL: B1 VL with W94Y
notes: Whole antibody
B9: H11 antibody (antibody, V domains shown)
VH: B1 VH with I50T, F53H
VL: B1 VL with Y32A, S92G, W94Y
notes: Whole antibody
B10: E01 antibody (antibody, V domains shown)
VH: B1 VH
VL: B1 VL with W94Y
notes: Whole antibody
B11: D10 antibody (antibody, V domains shown)
VH: B1 VH with W52N
VL: B1 VL with W94Y
B12: F02 Fab (Fab, V domains shown)
VH: B1 VH with Y32H, I50T
VL: B1 VL with Y32T, W94Y
B13: E01 Fab (Fab, V domains shown)
VH: B1 VH
VL: B1 VL with W94Y
B14: B10 Fab (Fab, V domains shown)
VH: B1 VH with I50T
VL: B1 VL with W94Y
B15: B02 Fab (Fab, V domains shown)
VH: B1 VH with Y32T, I50Y, G101N
VL: B1 VL with W94Y
B16: C10 Fab (Fab, V domains shown)
VH: B1 VH with Y32A, F53A
VL: B1 VL with W94Y
B17: H11 Fab (Fab, V domains shown)
VH: B1 VH with I50T, F53H
VL: B1 VL with Y32A, S92G, W94Y
B18: D03 Fab (Fab, V domains shown)
VH: B1 VH with Y32H, I50Y
VL: B1 VL with Y32A, W94Y
notes: also called clone D03
B19: B09 Fab (Fab, V domains shown)
VH: B1 VH with Y32H, W52A, F53G, G55A, S57T
VL: B1 VL with W94Y
B20: A11 Fab (Fab, V domains shown)
VH: B1 VH with I50Y
VL: B1 VL with W94Y

Each binder was assayed against T1, IGF-1R on NCI-H322 cells (UniProt P08069 31-1367, limits assumed) (assay: cell-based or functional assay).
T1 sequence (P08069 31-1367 limits assumed): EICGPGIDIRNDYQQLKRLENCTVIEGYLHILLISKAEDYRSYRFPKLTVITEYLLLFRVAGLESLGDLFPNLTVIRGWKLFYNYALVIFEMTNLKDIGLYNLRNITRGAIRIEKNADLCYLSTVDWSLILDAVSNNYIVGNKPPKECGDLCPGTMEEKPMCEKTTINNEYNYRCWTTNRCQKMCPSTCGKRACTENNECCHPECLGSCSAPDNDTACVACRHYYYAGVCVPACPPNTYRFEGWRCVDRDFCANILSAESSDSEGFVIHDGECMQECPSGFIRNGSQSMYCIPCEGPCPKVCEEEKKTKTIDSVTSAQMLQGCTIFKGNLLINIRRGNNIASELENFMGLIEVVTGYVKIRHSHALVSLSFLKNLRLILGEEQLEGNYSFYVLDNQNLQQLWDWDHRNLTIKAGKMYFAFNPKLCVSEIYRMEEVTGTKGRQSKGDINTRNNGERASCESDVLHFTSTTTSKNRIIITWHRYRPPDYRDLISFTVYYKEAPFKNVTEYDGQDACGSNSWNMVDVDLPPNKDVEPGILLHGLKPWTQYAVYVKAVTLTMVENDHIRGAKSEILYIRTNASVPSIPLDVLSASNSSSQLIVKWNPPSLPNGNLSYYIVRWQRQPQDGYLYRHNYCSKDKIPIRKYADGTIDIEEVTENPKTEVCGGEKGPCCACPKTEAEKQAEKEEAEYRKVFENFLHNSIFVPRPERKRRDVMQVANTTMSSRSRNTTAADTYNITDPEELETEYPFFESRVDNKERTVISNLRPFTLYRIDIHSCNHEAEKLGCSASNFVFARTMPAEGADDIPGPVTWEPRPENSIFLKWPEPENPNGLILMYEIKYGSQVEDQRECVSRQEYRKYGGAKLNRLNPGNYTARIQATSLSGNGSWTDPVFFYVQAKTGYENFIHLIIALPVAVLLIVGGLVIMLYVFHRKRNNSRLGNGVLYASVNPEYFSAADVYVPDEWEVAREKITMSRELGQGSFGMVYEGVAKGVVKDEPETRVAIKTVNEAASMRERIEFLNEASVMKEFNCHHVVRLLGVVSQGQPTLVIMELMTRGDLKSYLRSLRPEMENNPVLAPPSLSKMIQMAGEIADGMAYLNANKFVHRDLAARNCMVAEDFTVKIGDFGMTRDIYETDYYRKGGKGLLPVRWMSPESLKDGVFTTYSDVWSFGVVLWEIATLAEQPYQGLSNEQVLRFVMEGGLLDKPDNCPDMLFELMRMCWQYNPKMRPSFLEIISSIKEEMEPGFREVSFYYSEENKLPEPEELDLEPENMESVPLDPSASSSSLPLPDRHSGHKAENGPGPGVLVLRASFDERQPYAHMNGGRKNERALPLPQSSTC

Binder	IC50 of inhibition of IGF-1R phosphorylation [µg/mL]
B1	0.397
B2	0.0205

Molecular target: T1, IGF-1R on NCI-H322 cells
Experiment: cell-based or functional assay
Remark: another data set of the same source

Binder	Inhibition of Phosphorylation IC50 [µg/mL]
B1	0.0106
B3	0.0065
B4	0.0162
B5	0.0115
B6	0.0135
B7	0.0049
B8	0.0083
B9	0.0211
B10	0.0064
B11	0.0067

The binders below were run against T2, IGF-1R (coated on Maxisorp plates) (UniProt P08069 31-932, limits assumed) (assay: competition ELISA, plate-coated IGF-1R, antibody titrated against 200 ng/mL IGF-2 biotin).
T2 construct: also called the receptor
Description: (§1) Maxisorp plates were coated with 1.5 ug/mL of IGF-1R overnight at 4° C. Plates were washed and blocked with 1% BSA. Subsequently, serially diluted anti-IGF1R antibodies were incubated for 30 min at room temperature followed by an incubation with a final concentration of 200 ng/mL of IGF-2 biotin. Plates were washed and streptavidin-horseradish peroxidase was added. After a final wash, 3,3′,5,5′-Tetramethylbenzidine was added for 8 minutes. The reaction was terminated with a HCL based stop solution. Plates were measured for absorbance at 450 nm, and the data was analyzed using Softmax Pro 7.1 software.

T2 sequence (P08069 31-932 limits assumed): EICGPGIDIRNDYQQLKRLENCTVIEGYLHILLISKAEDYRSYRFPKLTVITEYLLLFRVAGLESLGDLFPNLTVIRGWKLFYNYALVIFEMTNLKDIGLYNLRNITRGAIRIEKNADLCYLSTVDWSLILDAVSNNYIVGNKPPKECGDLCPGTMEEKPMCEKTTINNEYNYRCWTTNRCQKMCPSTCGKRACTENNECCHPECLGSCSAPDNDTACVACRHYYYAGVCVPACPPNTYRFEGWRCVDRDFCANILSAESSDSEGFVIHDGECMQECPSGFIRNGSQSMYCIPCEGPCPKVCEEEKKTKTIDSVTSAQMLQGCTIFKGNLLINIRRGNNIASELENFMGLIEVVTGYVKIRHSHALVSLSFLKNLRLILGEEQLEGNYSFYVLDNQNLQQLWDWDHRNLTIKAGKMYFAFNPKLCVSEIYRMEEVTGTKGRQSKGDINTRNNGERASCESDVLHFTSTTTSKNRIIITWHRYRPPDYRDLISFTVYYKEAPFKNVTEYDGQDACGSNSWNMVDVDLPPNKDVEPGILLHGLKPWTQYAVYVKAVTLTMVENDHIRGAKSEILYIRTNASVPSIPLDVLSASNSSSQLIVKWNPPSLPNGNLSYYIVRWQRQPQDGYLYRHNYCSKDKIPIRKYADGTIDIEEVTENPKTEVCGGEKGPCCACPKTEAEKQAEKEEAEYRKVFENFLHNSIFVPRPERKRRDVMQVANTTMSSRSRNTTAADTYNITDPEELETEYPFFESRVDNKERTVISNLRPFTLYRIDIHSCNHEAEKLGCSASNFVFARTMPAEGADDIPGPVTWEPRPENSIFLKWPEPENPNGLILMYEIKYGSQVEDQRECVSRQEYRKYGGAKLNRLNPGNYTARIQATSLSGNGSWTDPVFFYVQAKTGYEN

Binder	IC50 [µg/mL]
B4	0.176
B5	0.158
B6	0.115
B7	0.161
B8	0.153
B9	0.157
B10	0.141

Each binder was assayed against T2, IGF-1R (coated on Maxisorp plates) (assay: competition ELISA, plate-coated IGF-1R, antibody titrated against 20 ng/mL IGF-1 biotin).
Description: as §1, with “20” for “200”, “IGF-1” for “of IGF-2”

Binder	IC50 [µg/mL]
B4	0.395
B5	0.351
B6	0.386
B7	0.388
B8	0.337
B9	0.452
B10	0.388

These binders were tested against T3, Human IGF-I R (Glu 31-Asn 932 with a polyhistidine tag at the C-terminus) (human, UniProt P08069 31-932) (assay: BLI (Octet RED96e), His-tagged IGF-1R on Ni-NTA sensors, Fab 0-100 nM, 1:1 global fit).
T3 construct: range 31-932; Bought protein; captured on Ni-NTA biosensors for BLI; also called IGF1R; IGF-1R; not shown: C-terminal polyhistidine tag
From the text: Human IGF-I R (Glu 31-Asn 932 with a polyhistidine tag at the C-terminus) expressed from human 293 cells (HEK293) was purchased from ACROBiosystems (Newark, DE). Dip and Read Ni-NTA (NTA) Biosensors from Sartorius (Bohemia, NY) pre-immobilized with nickel-charged Tris-NTA, were enabled for kinetic characterization of novel anti-human IGF-I R antibodies. Briefly, antibody variants were digested into purified Fab fragments (to enable 1:1 binding and global fitting). The Fab[…] Fab kit from GENOVIS (Cambridge, MA) was used to generate a monovalent binding Fab domain of each antibody variant, Fab fragments are subsequently separated from Fc using the CaptureSelect™ Fc column. Binding of variant Fabs to NTA-captured human IGF-I R (His-tagged) was monitored by biolayer interferometry (BLI) on an Octet RED96e (Sartorius). NTA biosensors were charged with 10 mM NiCl2, then loaded with His-tagged human IGF-I R at approximately 5 ug/mL to an average loading response of 0.67 nm shift. Variant Fabs were assayed from 0-100 nM in 10X kinetics buffer (1X PBS, 0.1% BSA, 0.02% Tween-20 plus Kathon as a preservative) from Sartorius. Binding kinetics and affinities were determined using the Octet Analysis Studio Software (Sartorius) by applying a 1:1 global fitting to double-referenced subtracted data.

T3 sequence (P08069 31-932 limits assumed): as above

Binder	Kd [nM]	koff [s⁻¹]	kon [M⁻¹ s⁻¹]
B12	1.92	0.0023	1.2e+06
B13	0.179	0.000298	2.66e+06
B14	0.898	0.000826	921000
B15	1.54	0.00125	810000
B16	0.447	0.000485	1.08e+06
B17	0.418	0.000744	1.78e+06
B18	0.407	0.000603	1.48e+06
B19	1.13	0.000799	705000
B20	0.849	0.00076	895000
